Measurements as given in article PMC2018643 (Nucleic Acids Research, 2007).

Biological target: the molecule itself
Test: SEC

B1: His(6)-Rrp47p (natural protein, S. cerevisiae, UniProt P38801 1-184, looked up)
chain: MEDIEKIKPYVRSFSKALDELKPEIEKLTSKSLDEQLLLLSDERAKLELINRYAYVLSSLMFANMKVLGVKDMSPILGELKRVKSYMDKAKQYDNRITKSNEKSQAEQEKAKNIISNVLDGNKNQFEPSISRSNFQGKHTKFENDELAESTTTKIIDSTDHIRKASSKKSKRLDKVGKKKGGKK
In the case of B1, the “stoichiometry N” value is reported as 6.
